Source: publication PMC9482650, “Quantitative fragmentomics allow affinity mapping of interactomes” (Nature Communications, 2022)

Tests used:
Test in all cases: holdup assay
Set-up in all cases: key: below the threshold = too weak to quantify, mostly under pKd 3.1 to 4
APBA1_1, Q02410 = molecular target: T1, APBA1_1, Q02410
T1 sequence (Q02410 651-752, limits assumed, looked up): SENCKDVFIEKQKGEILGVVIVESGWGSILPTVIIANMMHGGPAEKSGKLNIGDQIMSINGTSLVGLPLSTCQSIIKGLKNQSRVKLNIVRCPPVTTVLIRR

APBA1_2, Q02410 = molecular target: T2, APBA1_2, Q02410
T2 sequence (Q02410 742-832, limits assumed, looked up): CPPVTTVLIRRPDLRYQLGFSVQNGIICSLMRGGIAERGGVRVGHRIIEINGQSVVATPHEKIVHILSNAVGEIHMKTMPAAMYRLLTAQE

DLG1_1, Q12959 = molecular target: DLG1_1, Q12959
DLG4_1, P78352 = molecular target: DLG4_1, P78352
Chain of DLG4_1, P78352 (P78352 62-152): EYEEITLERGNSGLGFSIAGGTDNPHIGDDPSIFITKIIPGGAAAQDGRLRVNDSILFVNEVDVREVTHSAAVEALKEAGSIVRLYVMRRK

DLG4_3, P78352 = molecular target: DLG4_3, P78352
Chain of DLG4_3, P78352 (P78352 306-403): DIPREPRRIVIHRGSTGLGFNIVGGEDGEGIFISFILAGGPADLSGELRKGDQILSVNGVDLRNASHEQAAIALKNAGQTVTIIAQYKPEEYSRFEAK

DVL3, Q92997 = molecular target: T3, DVL3, Q92997
T3 sequence (Q92997 244-331, limits assumed, looked up): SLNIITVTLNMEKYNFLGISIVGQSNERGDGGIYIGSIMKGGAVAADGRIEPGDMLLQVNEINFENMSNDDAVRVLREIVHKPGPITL

FRMPD2_1, Q68DX3 = molecular target: FRMPD2_1, Q68DX3
Chain of FRMPD2_1, Q68DX3 (Q68DX3 770-861): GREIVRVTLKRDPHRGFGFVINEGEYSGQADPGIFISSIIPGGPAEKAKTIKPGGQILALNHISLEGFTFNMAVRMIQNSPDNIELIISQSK

GIPC2, Q8TF65 = molecular target: GIPC2, Q8TF65
Chain of GIPC2, Q8TF65 (Q8TF65 112-203): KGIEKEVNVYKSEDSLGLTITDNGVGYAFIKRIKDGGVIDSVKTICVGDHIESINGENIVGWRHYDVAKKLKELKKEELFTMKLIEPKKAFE

GORASP2, Q9H8Y8 = molecular target: GORASP2, Q9H8Y8
GRIP1_5, Q9Y3R0 = molecular target: T4, GRIP1_5, Q9Y3R0
T4 sequence (Q9Y3R0 568-668, limits assumed, looked up): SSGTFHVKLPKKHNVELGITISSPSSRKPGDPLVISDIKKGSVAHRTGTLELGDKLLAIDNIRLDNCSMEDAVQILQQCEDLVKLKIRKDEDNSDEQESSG

GRIP2_4, Q9C0E4 = molecular target: GRIP2_4, Q9C0E4
Chain of GRIP2_4, Q9C0E4 (Q9C0E4 446-548): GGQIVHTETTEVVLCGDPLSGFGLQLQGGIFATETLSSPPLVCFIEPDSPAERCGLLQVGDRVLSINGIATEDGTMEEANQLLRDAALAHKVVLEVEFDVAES

GRIP2_7, Q9C0E4 = molecular target: GRIP2_7, Q9C0E4
Chain of GRIP2_7, Q9C0E4 (Q9C0E4 934-1023): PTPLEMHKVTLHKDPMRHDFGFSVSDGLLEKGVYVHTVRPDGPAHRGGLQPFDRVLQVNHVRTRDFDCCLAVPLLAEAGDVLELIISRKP

IL16_3, Q14005 = molecular target: IL16_3, Q14005
Chain of IL16_3, Q14005 (Q14005 1107-1207): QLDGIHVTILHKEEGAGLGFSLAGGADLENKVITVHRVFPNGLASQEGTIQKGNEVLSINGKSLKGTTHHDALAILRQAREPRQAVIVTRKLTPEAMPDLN

Inadl_10, Q8NI35 = molecular target: Inadl_10, Q8NI35
Chain of Inadl_10, Q8NI35 (Q8NI35 1673-1763): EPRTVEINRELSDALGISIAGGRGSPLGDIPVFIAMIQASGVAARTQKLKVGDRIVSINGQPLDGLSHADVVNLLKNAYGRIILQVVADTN

Inadl_8, Q8NI35 = molecular target: Inadl_8, Q8NI35
Chain of Inadl_8, Q8NI35 (Q8NI35 1425-1530): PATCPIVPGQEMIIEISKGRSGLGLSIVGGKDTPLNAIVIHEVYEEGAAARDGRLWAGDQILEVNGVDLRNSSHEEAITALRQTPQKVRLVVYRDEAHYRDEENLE

LIMK2, P53671 = molecular target: LIMK2, P53671
Chain of LIMK2, P53671 (P53671 143-248): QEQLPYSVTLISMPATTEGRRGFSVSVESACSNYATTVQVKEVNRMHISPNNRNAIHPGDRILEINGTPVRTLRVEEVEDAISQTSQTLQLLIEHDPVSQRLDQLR

LIN7C, Q9NUP9 = molecular target: T5, LIN7C, Q9NUP9
T5 sequence (Q9NUP9 88-185, limits assumed, looked up): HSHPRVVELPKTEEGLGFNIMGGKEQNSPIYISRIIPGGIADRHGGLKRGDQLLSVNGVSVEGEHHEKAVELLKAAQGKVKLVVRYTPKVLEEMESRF

LNX2_3, Q8N448 = molecular target: T6, LNX2_3, Q8N448
T6 sequence (Q8N448 463-564, limits assumed, looked up): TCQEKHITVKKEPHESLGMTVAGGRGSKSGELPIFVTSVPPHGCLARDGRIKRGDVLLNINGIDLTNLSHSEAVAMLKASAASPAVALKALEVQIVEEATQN

MAST2, Q6P0Q8 = molecular target: MAST2, Q6P0Q8
Chain of MAST2, Q6P0Q8 (Q6P0Q8 1099-1202): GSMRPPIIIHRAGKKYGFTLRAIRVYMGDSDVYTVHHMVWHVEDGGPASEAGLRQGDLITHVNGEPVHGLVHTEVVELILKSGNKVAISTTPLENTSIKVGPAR

MPDZ_12, O75970 = molecular target: T7, MPDZ_12, O75970
T7 sequence (O75970 1857-1958, limits assumed, looked up): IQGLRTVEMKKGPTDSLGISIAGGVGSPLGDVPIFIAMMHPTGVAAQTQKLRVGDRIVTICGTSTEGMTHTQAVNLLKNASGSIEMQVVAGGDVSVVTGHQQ

NHERF3_4, Q5T2W1 = molecular target: T8, NHERF3_4, Q5T2W1
T8 sequence (Q5T2W1 373-468, limits assumed, looked up): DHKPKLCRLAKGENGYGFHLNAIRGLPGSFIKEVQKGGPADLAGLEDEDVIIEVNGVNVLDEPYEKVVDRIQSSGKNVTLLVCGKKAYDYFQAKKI

NHERF4_4, Q86UT5 = molecular target: NHERF4_4, Q86UT5
Chain of NHERF4_4, Q86UT5 (Q86UT5 464-550): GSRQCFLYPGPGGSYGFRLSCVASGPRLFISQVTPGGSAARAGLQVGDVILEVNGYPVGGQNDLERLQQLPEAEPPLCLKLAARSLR

PDZD2_2, O15018 = molecular target: T9, PDZD2_2, O15018
T9 sequence (O15018 329-429, limits assumed, looked up): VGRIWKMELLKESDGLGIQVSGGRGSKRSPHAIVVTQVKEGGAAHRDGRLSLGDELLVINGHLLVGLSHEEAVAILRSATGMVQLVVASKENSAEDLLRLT

PTPN3, P26045 = molecular target: PTPN3, P26045
Chain of PTPN3, P26045 (P26045 505-587): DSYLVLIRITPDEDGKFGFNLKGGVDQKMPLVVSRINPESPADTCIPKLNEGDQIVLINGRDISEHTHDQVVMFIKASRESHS

SCRIB_2, Q14160 = molecular target: SCRIB_2, Q14160
Chain of SCRIB_2, Q14160 (Q14160 857-960): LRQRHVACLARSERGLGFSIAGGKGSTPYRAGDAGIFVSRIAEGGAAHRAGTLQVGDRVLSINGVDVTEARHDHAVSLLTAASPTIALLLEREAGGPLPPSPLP

SNTG1, Q9NSN8 = molecular target: T10, SNTG1, Q9NSN8
T10 sequence (Q9NSN8 52-150, limits assumed, looked up): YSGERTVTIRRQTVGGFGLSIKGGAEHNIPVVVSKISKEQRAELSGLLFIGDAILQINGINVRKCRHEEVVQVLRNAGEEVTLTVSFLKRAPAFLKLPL

SNTG2, Q9NY99 = molecular target: T11, SNTG2, Q9NY99
T11 sequence (Q9NY99 68-166, limits assumed, looked up): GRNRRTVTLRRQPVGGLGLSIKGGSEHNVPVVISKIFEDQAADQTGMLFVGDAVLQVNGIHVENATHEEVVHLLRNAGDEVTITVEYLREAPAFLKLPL

[1] = plain residues with an end cap or a label only (N-terminal biotin on a linker: ado-ado)
[2] = plain residues with an end cap or a label only (N-terminal biotin on a linker: (peg)3)
[3] = plain residues with an end cap or a label only (N-terminal biotin on a linker: ahx)

B1: PTPRG, P23470 (peptide)
chain: DPAESMESLV
APBA1_1, Q02410; [1]
  pKd: below the threshold
APBA1_2, Q02410; [1]
  pKd: below the threshold
DLG1_1, Q12959; [1]
  pKd: 4.45
DLG4_1, P78352; [1]
  pKd: 4.59
DLG4_3, P78352; [1]
  pKd: below the threshold
DVL3, Q92997; [1]
  pKd: below the threshold
FRMPD2_1, Q68DX3; [1]
  pKd: below the threshold
GIPC2, Q8TF65; [1]
  pKd: 3.95
GORASP2, Q9H8Y8; [1]
  pKd: below the threshold
GRIP1_5, Q9Y3R0; [1]
  pKd: below the threshold
GRIP2_4, Q9C0E4; [1]
  pKd: below the threshold
GRIP2_7, Q9C0E4; [1]
  pKd: below the threshold
IL16_3, Q14005; [1]
  pKd: below the threshold
Inadl_10, Q8NI35; [1]
  pKd: below the threshold
Inadl_8, Q8NI35; [1]
  pKd: below the threshold
LIMK2, P53671; [1]
  pKd: below the threshold
LIN7C, Q9NUP9; [1]
  pKd: 3.94
LNX2_3, Q8N448; [1]
  pKd: below the threshold
MAST2, Q6P0Q8; [1]
  pKd: 4.69
MPDZ_12, O75970; [1]
  pKd: below the threshold
NHERF3_4, Q5T2W1; [1]
  pKd: below the threshold
NHERF4_4, Q86UT5; [1]
  pKd: 3.75
PDZD2_2, O15018; [1]
  pKd: 5.16
PTPN3, P26045; [1]
  pKd: 4.61
SCRIB_2, Q14160; [1]
  pKd: 3.68
SNTG1, Q9NSN8; [1]
  pKd: 4.66
SNTG2, Q9NY99; [1]
  pKd: 4.24

B2: WNV-NS5, Q9Q6P4 (peptide)
chain: RYEDTTLVEDTVL
APBA1_1, Q02410; [2]
  pKd: below the threshold
APBA1_2, Q02410; [2]
  pKd: below the threshold
DLG1_1, Q12959; [2]
  pKd: 3.58
DLG4_1, P78352; [2]
  pKd: below the threshold
DLG4_3, P78352; [2]
  pKd: below the threshold
DVL3, Q92997; [2]
  pKd: below the threshold
FRMPD2_1, Q68DX3; [2]
  pKd: below the threshold
GIPC2, Q8TF65; [2]
  pKd: below the threshold
GORASP2, Q9H8Y8; [2]
  pKd: below the threshold
GRIP1_5, Q9Y3R0; [2]
  pKd: below the threshold
GRIP2_4, Q9C0E4; [2]
  pKd: below the threshold
GRIP2_7, Q9C0E4; [2]
  pKd: below the threshold
IL16_3, Q14005; [2]
  pKd: below the threshold
Inadl_10, Q8NI35; [2]
  pKd: below the threshold
Inadl_8, Q8NI35; [2]
  pKd: below the threshold
LIMK2, P53671; [2]
  pKd: below the threshold
LIN7C, Q9NUP9; [2]
  pKd: below the threshold
LNX2_3, Q8N448; [2]
  pKd: below the threshold
MAST2, Q6P0Q8; [2]
  pKd: 5.64
MPDZ_12, O75970; [2]
  pKd: below the threshold
NHERF3_4, Q5T2W1; [2]
  pKd: 3.96
NHERF4_4, Q86UT5; [2]
  pKd: below the threshold
PDZD2_2, O15018; [2]
  pKd: 4.42
PTPN3, P26045; [2]
  pKd: 4.37
SCRIB_2, Q14160; [2]
  pKd: below the threshold
SNTG1, Q9NSN8; [2]
  pKd: below the threshold
SNTG2, Q9NY99; [2]
  pKd: 4

B3: ABCA1, O95477 (peptide)
chain: QDEKVKESYV
APBA1_1, Q02410; [3]
  pKd: below the threshold
APBA1_2, Q02410; [3]
  pKd: 4.29
DLG1_1, Q12959; [3]
  pKd: 4.6
DLG4_1, P78352; [3]
  pKd: 4.52
DLG4_3, P78352; [3]
  pKd: 3.78
DVL3, Q92997; [3]
  pKd: 3.7
FRMPD2_1, Q68DX3; [3]
  pKd: 3.53
GIPC2, Q8TF65; [3]
  pKd: 4.26
GORASP2, Q9H8Y8; [3]
  pKd: 3.75
GRIP1_5, Q9Y3R0; [3]
  pKd: below the threshold
GRIP2_4, Q9C0E4; [3]
  pKd: below the threshold
GRIP2_7, Q9C0E4; [3]
  pKd: 3.59
IL16_3, Q14005; [3]
  pKd: below the threshold
Inadl_10, Q8NI35; [3]
  pKd: below the threshold
Inadl_8, Q8NI35; [3]
  pKd: 4.68
LIMK2, P53671; [3]
  pKd: below the threshold
LIN7C, Q9NUP9; [3]
  pKd: 4.59
LNX2_3, Q8N448; [3]
  pKd: 3.63
MAST2, Q6P0Q8; [3]
  pKd: 4.68
MPDZ_12, O75970; [3]
  pKd: below the threshold
NHERF3_4, Q5T2W1; [3]
  pKd: 3.5
NHERF4_4, Q86UT5; [3]
  pKd: below the threshold
PDZD2_2, O15018; [3]
  pKd: 5.66
PTPN3, P26045; [3]
  pKd: 5.04
SCRIB_2, Q14160; [3]
  pKd: 4.61
SNTG1, Q9NSN8; [3]
  pKd: 5.24
SNTG2, Q9NY99; [3]
  pKd: 5.06

B4: RTKN, Q9BST9 (peptide)
chain: QPRTWLQSPV
APBA1_1, Q02410; [3]
  pKd: below the threshold
APBA1_2, Q02410; [3]
  pKd: below the threshold
DLG1_1, Q12959; [3]
  pKd: 3.74
DLG4_1, P78352; [3]
  pKd: 4.19
DLG4_3, P78352; [3]
  pKd: 4.35
DVL3, Q92997; [3]
  pKd: below the threshold
FRMPD2_1, Q68DX3; [3]
  pKd: below the threshold
GIPC2, Q8TF65; [3]
  pKd: below the threshold
GORASP2, Q9H8Y8; [3]
  pKd: below the threshold
GRIP1_5, Q9Y3R0; [3]
  pKd: below the threshold
GRIP2_4, Q9C0E4; [3]
  pKd: below the threshold
GRIP2_7, Q9C0E4; [3]
  pKd: below the threshold
IL16_3, Q14005; [3]
  pKd: below the threshold
Inadl_10, Q8NI35; [3]
  pKd: below the threshold
Inadl_8, Q8NI35; [3]
  pKd: 4.89
LIMK2, P53671; [3]
  pKd: below the threshold
LIN7C, Q9NUP9; [3]
  pKd: below the threshold
LNX2_3, Q8N448; [3]
  pKd: below the threshold
MAST2, Q6P0Q8; [3]
  pKd: 4.13
MPDZ_12, O75970; [3]
  pKd: below the threshold
NHERF3_4, Q5T2W1; [3]
  pKd: below the threshold
NHERF4_4, Q86UT5; [3]
  pKd: below the threshold
PDZD2_2, O15018; [3]
  pKd: 4.71
PTPN3, P26045; [3]
  pKd: 3.78
SCRIB_2, Q14160; [3]
  pKd: below the threshold
SNTG1, Q9NSN8; [3]
  pKd: 3.52
SNTG2, Q9NY99; [3]
  pKd: below the threshold

B5: FZD10, Q9ULW2 (peptide)
chain: EIPAQSPTCV
APBA1_1, Q02410; [1]
  pKd: below the threshold
APBA1_2, Q02410; [1]
  pKd: 4.77
DLG1_1, Q12959; [1]
  pKd: 3.85
DLG4_1, P78352; [1]
  pKd: 4.01
DLG4_3, P78352; [1]
  pKd: below the threshold
DVL3, Q92997; [1]
  pKd: 3.6
FRMPD2_1, Q68DX3; [1]
  pKd: 3.92
GIPC2, Q8TF65; [1]
  pKd: 3.74
GORASP2, Q9H8Y8; [1]
  pKd: 3.98
GRIP1_5, Q9Y3R0; [1]
  pKd: below the threshold
GRIP2_4, Q9C0E4; [1]
  pKd: below the threshold
GRIP2_7, Q9C0E4; [1]
  pKd: 3.7
IL16_3, Q14005; [1]
  pKd: below the threshold
Inadl_10, Q8NI35; [1]
  pKd: 3.55
Inadl_8, Q8NI35; [1]
  pKd: 4.35
LIMK2, P53671; [1]
  pKd: below the threshold
LIN7C, Q9NUP9; [1]
  pKd: below the threshold
LNX2_3, Q8N448; [1]
  pKd: 3.78
MAST2, Q6P0Q8; [1]
  pKd: 4.01
MPDZ_12, O75970; [1]
  pKd: below the threshold
NHERF3_4, Q5T2W1; [1]
  pKd: below the threshold
NHERF4_4, Q86UT5; [1]
  pKd: below the threshold
PDZD2_2, O15018; [1]
  pKd: 4.49
PTPN3, P26045; [1]
  pKd: 3.77
SCRIB_2, Q14160; [1]
  pKd: below the threshold
SNTG1, Q9NSN8; [1]
  pKd: 3.83
SNTG2, Q9NY99; [1]
  pKd: 3.85
